The source of these data is patent US20240254220A1, “COMBINED THERAPY USING ANTI-CD300C ANTIBODY” (CentricsBio, Inc., priority 2021, published 2024).

One experiment addresses T1, CD300c antigen (Homo sapiens, UniProt Q08708).
T1 sequence (Q08708 21-224): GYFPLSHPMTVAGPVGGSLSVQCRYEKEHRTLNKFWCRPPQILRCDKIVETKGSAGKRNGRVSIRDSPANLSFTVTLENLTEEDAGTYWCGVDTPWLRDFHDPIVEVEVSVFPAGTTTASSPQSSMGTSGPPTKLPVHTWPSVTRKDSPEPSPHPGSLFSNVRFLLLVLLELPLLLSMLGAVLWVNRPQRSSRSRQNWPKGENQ
The experiment can be described thus: Binding ELISA of CL7 (Experimental Example 2.3). The note with it: CL7 diluted from 10 μg/mL. Here is the method: CD300c antigen (250 ug/mL) was diluted to a concentration of 800 ng/mL in coating buffer (0.1 M sodium carbon ate, pH 9.0), placed into a 96-well microplate at 100 μL per well, and incubated at 4° C. overnight. The next day, the microplate was washed three times with 200 μL of PBST. Thereafter, 200 μL of a blocking buffer (5% skim milk) was added thereto, followed by blocking at room temperature for 1 hour. The anti-CD300c monoclonal antibody CL7 was diluted to 200 μg/mL in PBS, and the concentration thereof was checked by measurement using Nanodrop (product name: NanoDrop One/One, manufactured by Thermo Fisher Scientific). Subsequently, CL7 was diluted in quadruplicate with PBS starting from 10 μg/mL, and added at 100 μL each, followed by incubation at room temperature for 1 hour. After the incubation, the microplate was washed three times with […] of PBST. A secondary antibody (conjugated anti-Fc IgG) was diluted 1:10,000 in blocking buffer, and added at 100 μL, followed by incubation at room temperature for 1 hour, and then washed three times with 200 μL of PBST. […] Then, 50 μL of 1 N sulfuric acid was added to stop development, and measurement was performed at 450 nm using a microplate reader (product name: Varioskan LUX) to obtain binding affinity results.

Experiment [1] deals with mouse macrophages (Raw264.7). The experiment can be described thus: TNF-α production in mouse macrophages (M1 differentiation). The experiment is classed as cell-based. The note with it: Raw264.7, 10 μg/mL. How it is done:
In order to identify whether anti-CD300c monoclonal antibodies can promote the differentiation from mouse macrophages into M1 macrophages, mouse macrophages (Raw264.7) were dispensed into a 96-well plate at a concentration of 1×10^4 cells/well, and then treated with 10 μg/mL CL7, followed by incubation. Thereafter, the production amount of TNF-α was identified by an ELISA kit (Human TNF-α Quantikine kit, R&D Systems).

The test system of experiment [2] is colon cancer cell line (CT26) tumor. The experiment can be described thus: Nanostring Immune profiling of CT26 tumor tissue. Format: in vivo, BALB/c mice. The note with it: 25 mg/kg i.p., tumor RNA, vs control. Here is the method:
In order to identify changes in expression of immune cell- and tumor microenvironment-related markers when solid cancer models are administered the anti-CD300c monoclonal antibody (CL7) produced in Example 1, a colon cancer cell line (CT26) at 2×10^5 cells was transplanted by subcutaneous injection into 8-week-old BALB/c mice to prepare syngeneic mouse tumor models. Animal breeding and experiments were all conducted in a specific pathogen free (SPF) facility. In addition, 12 days after transplantation of the colon cancer cell line, the mice with a tumor size of 50 mm^3 to 100 mm^3 were separately administered the anti-CD300c monoclonal antibody, and for a control group, the mice were injected with the same amount of phosphate buffered saline (PBS). The mice were intraperitoneally injected with 25 mg/kg twice a week for two weeks over a total of 4 times. On day 25 after the injection, the mice were euthanized, and the tumor tissue was prepared. RNA was extracted and purified therefrom, and changes in dendritic cell markers, macrophage markers, tumor microenvironment (TME) markers, Th1 response markers, or Th2 response markers were identified through Nanostring Immune profiling.
On the basis of the Nanostring Immune profiling results obtained in Example 2.1, it was identified which immune checkpoint markers show a significant difference in expression compared with the control group when syngeneic mouse tumor models are administered the anti-CD300c monoclonal antibody.

For a further experiment, the system named is THP-1. Nature of the experiment: M1 macrophage marker ELISA in THP-1. Format: cell-based, human. The note with it: THP-1, 10 μg/mL, 48 hours, antibody alone. Here is the method: In order to identify whether the induction of differentiation of monocytes into M1 macrophages increases when the cells are treated with the anti-CD300c monoclonal antibody CL7 produced in Example 1 and an immunotherapeutic agent, such as Imfinzi as an anti-PD-L1 antibody, Opdivo as an anti-PD-1 antibody, KEYTRUDA as an anti-PD-1 antibody, an anti-CD47 antibody (αCD47), and an anti-CTLA-4 antibody, alone in combination, THP-1 was dispensed into a 96-well plate at 1.5×10^4 cells/well and treated with the anti-CD300c monoclonal antibody and the immunotherapeutic agent, respectively, at 10 μg/mL alone or in combination, followed by incubation for 48 hours, and the production levels of tumor necrosis factor-α (TNF-α), IL-1b, and IL-8, which are differentiation markers of M1 macrophages, were measured using an ELISA kit (Human TNF-α Quantikine kit, R&D Systems).

B1: CL7: anti-CD300c monoclonal antibody, VH3VL1 phage library, VH SEQ ID 327, VL SEQ ID 328 (antibody, V domains shown)
VH: EVQLLESGGGLVQPGGSLRLSCAASGFTFSRYAMSWVRQAPGKGLEWVSAISGSGGSTYYADSVKGRFTISRDNSKNTLYLQMNSLRAEDTAVYYCARSSQGIFDIWGQGTLVTVSS
VL: QSVLTQPPSASGTPGQRVTISCSGNNIGTRRVHWYQQLPDTAPKLLIYSKNNRPSGVPDRFSGSKSGTSASLAISGLRSEDEADYYCAAWDDSLSGPVFGGGTKLTVL
modifications: CL7 Heavy Chain Variable Region; CL7 Light Chain Variable Region
Turning to B1, the “binding to CD300c” value with CD300c antigen is reported as “bound to CD300c in a concentration-dependent manner”. Besides, the “production level of TNF-α” value in experiment [1] is listed as “increased”. For the same molecule, in experiment [2], the “expression of M1 macrophage markers CCR7, CD80” value is “significantly increase”; the “expression of Th1 response markers Tbx21, Stat1, Stat4, Ifn-g, Cxcr3” value is reported as “increase”; the “expression of agonistic immune checkpoints ICOS, OX40, Gitr, Cd27, Cd28” value was “increases”; the “expression of dendritic cell markers Bst2, CCL8, Xcl1” value is listed as “significantly increase”. In addition, in experiment [2], the “expression of inhibitory immune checkpoints PD-1, CTLA-4, Lag3” value is recorded as “increases” and the “expression of tumor microenvironment markers vegfa, pdgfrb, Col4a1, Hif1a” value is “reduction”. In the experiment on THP-1, the “production level of IL-8” value is “significantly increased” and the “production levels of all three differentiation markers (TNF-α, IL-1b, IL-8)” value is recorded as “increased”.
